Measurements from US20130122013A1 (Eli Lilly, published 2013).

Columns and labels:
peptide 0708L4C = biological target: T1, peptide 0708L4C (human); assay: dot blot: peptide spotted on nitrocellulose, probed with Mab 34A9, IR700-labeled goat anti-mouse detection
T1 peptide: GGEDIRSRFIQGESITGC
Experimental: (§1) For each peptide, 3 μl of 1-5 μg/mL peptide is spotted onto a piece of nitrocellulose membrane and air dried. The membrane is blocked with blocking buffer (e.g., PBS containing 1% BSA), then incubated with 3-5 μg/mL FPN1 antibody in blocking buffer at room temperature for an hour. The membrane is washed three times, 5 min each, with 1×PBST (10 mM sodium phosphate, 150 mM NaCl, 0.1% Tween-20, pH 7.4) before it is incubated with IR700-labeled-Goat-anti-Mouse antibody according to manufacturer's protocol (LiCor, Inc; Lincoln, Nebr.). The membrane is washed three times, five minutes each, with 1×PBST, is imaged on Odyssey imaging system and Odyssey software (LiCor, Inc).

peptide 0708L4D = biological target: T2, peptide 0708L4D (human); assay: as above
T2 peptide: GGRSRFIQGESITPTKGC
Experimental: as §1

peptide FpnE3a = biological target: T3, peptide FpnE3a (human); assay: as above
T3 peptide: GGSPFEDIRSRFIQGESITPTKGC
Experimental: as §1

peptide 060719Z = biological target: T4, peptide 060719Z (human); assay: as above
T4 peptide: GGSPFEDIRSRFIQGC
Experimental: as §1

[1] = biological target: T5, human FPN1 C-terminally fused with GFP (human, UniProt Q9NP59 1-571, GFP reporter fused to the C-terminus ("FPN1 is C-terminally fused with GFP"). It is left out because the patent gives no letters for it.); assay: cell-based or functional assay
T5 sequence: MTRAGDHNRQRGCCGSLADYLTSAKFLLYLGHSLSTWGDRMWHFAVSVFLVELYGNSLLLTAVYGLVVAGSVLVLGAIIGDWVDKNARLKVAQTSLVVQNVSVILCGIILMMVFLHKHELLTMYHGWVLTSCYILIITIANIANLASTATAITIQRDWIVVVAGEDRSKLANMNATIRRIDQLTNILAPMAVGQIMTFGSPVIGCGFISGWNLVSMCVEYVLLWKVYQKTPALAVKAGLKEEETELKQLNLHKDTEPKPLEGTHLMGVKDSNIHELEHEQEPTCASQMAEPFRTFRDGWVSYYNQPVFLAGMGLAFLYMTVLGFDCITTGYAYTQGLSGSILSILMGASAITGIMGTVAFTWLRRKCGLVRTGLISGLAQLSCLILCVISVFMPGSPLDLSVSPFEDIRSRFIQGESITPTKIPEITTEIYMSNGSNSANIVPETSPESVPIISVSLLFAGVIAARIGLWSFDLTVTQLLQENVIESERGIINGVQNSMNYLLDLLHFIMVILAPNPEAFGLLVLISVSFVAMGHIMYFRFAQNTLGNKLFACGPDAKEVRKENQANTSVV

[2] = biological target: T5, human FPN1 C-terminally fused with GFP; assay: cell-based or functional assay; remark: listed apart in the source
[3] = biological target: T5, human FPN1 C-terminally fused with GFP; assay: SPR, Biacore T100, 25 C, 1:1 model; FPN1-GFP captured from cell lysate on rabbit anti-GFP antibody, Mab injected
Experimental: (§2) The affinities of FPN1 binding Fabs and Mabs may be determined on Biacore T100 and using 1:1 binding model in the Biacore T100 evaluation software (BIAcore® AB, Upsala, Sweden). […] FPN1 is C-terminally fused with GFP. Expression of FPN1-GFP is induced by 1-10 ng/mL doxycycline for 1-24 hours. Induced cells are harvested by scraping off from flasks and then washed with 1×PBS. Cell pellets can be stored at −80° C. before use. About five million induced cells are resuspended in 10 mM phosphate buffer with 0.2% Tween-20 and protease inhibitors, e.g., Complete™ Protease Inhibitor Cocktail Tablet (Roche Diagnostics Corp., Indianapolis, Ind.). Three cycles of freeze/thaw/sonication are used to lyse the cells. The lysate is diluted two-fold with Biacore running buffer and centrifuged to remove debris.
(§3) On Biacore T100, rabbit anti-GFP antibody or goat anti-GFP antibody is immobilized onto flow cell 1 to 4 of a CMS chip at 5000-15000 Rus. FPN1-GFP is captured onto flow cell 2, 3, or 4 from the lysate of induced cells. Flow cell 1 is used as reference. Then all flow cells are injected with different concentrations of antibodies to evaluate the binding and kinetics.

human ferroportin 1 [4] = biological target: T6, human ferroportin 1 (human, UniProt Q9NP59 1-571); assay: inhibition of binding of 30 nM biotinylated hepcidin to FPN/293 cells, ELISA of lysate
T6 construct: also called human FPN1; FPN1
T6 sequence: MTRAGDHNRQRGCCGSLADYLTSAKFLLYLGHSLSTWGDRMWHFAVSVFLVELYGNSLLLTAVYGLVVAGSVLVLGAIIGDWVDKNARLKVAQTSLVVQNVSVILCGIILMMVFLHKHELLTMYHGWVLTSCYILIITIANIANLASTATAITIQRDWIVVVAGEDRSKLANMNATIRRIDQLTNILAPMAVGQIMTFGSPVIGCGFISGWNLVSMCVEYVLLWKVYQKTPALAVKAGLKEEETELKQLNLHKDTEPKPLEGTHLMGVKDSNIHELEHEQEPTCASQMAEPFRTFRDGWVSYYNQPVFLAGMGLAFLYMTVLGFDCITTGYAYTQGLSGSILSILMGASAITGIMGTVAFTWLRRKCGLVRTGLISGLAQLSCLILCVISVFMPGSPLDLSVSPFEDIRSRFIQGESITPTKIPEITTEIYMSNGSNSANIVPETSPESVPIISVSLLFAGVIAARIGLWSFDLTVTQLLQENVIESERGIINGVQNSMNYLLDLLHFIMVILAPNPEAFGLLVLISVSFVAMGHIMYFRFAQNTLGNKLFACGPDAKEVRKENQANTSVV
Experimental: (§4) Next, 65 μL of lysing buffer (0.5% Triton X-100, 10 mM EDTA) are added to all the wells and the plates are shaken for 10 minutes. Next, 50 μL of the solution in each well is transferred to individual wells of a streptavidin coated Greiner microtiter plate (60 μL of 2 μg/mL streptavidin (Sigma, St. Louis, Mo.; catalog no. S4762) in PBS, incubated at 4° C. overnight, washed 2 times (0.1% Tween 20, TBS), blocked with casein/PBS), and then incubated for one hour at room temperature. […] After incubating one hour at room temperature, the plate is washed 4× and 50 μL of OPD substrate (Sigma; catalog no. P6912) is added. The reaction is stopped with 100 μL 1 N HCl after 4 minutes. Absorbance at 490 nm (A₄₉₀) is read using an appropriate ELISA plate reader.

human ferroportin 1 [5] = biological target: T6, human ferroportin 1; assay: cell-based or functional assay
[6] = biological target: T5, human FPN1 C-terminally fused with GFP; assay: SPR, Biacore T100, 37 C, 1:1 model; FPN1-GFP captured from cell lysate on rabbit anti-GFP antibody, Mab injected
Experimental: as §2, §3

human ferroportin 1 [7] = biological target: T6, human ferroportin 1; assay: inhibition of binding of 30 nM biotinylated hepcidin to FPN/293 cells, ELISA of lysate; antibody at 7.8 nM; mean
Experimental: as §4

human ferroportin 1 [8] = biological target: T6, human ferroportin 1; assay: inhibition of binding of 30 nM biotinylated hepcidin to FPN/293 cells, ELISA of lysate; antibody at 125 nM; mean
Experimental: as §4

human ferroportin 1 [9] = biological target: T6, human ferroportin 1; assay: inhibition of binding of 30 nM biotinylated hepcidin to FPN/293 cells, ELISA of lysate; antibody at 2000 nM; mean
Experimental: as §4

human ferroportin 1 [10] = biological target: T6, human ferroportin 1; assay: inhibition of binding of 30 nM biotinylated hepcidin to FPN/293 cells, ELISA of lysate; antibody at 31.25 nM; mean
Experimental: as §4

human ferroportin 1 [11] = biological target: T6, human ferroportin 1; assay: inhibition of binding of 30 nM biotinylated hepcidin to FPN/293 cells, ELISA of lysate; antibody at 500 nM; mean
Experimental: as §4

[12] = biological target: T5, human FPN1 C-terminally fused with GFP; assay: SPR, Biacore T100, 37 C, 1:1 model; FPN1-GFP captured from cell lysate on goat anti-GFP antibody, Fab injected; n = 4
Experimental: as §2, §3

[13] = biological target: T5, human FPN1 C-terminally fused with GFP; assay: SPR, Biacore T100, 37 C, 1:1 model; FPN1-GFP captured from cell lysate on rabbit anti-GFP antibody, Fab injected
Experimental: as §2, §3

[14] = biological target: T5, human FPN1 C-terminally fused with GFP; assay: SPR, Biacore T100, 37 C; KD of Fab 1G9 against KD of Fab 34A9 (Table 4(a))
Text: The affinities of FPN1 binding Fabs and Mabs may be determined on Biacore T100 and using 1:1 binding model in the Biacore T100 evaluation software (BIAcore® AB, Upsala, Sweden). Briefly, the T-REx system, a commercially available tetracycline-regulated expression system without viral transactivators (Invitrogen, Carlsbad, Calif.) is used for stable cell line generation in T-Rex HEK 293 cells. All growth conditions are described in the T-REx manual provided by Invitrogen. FPN1 is C-terminally fused with GFP. Expression of FPN1-GFP is induced by 1-10 ng/mL doxycycline for 1-24 hours. Induced cells are harvested by scraping off from flasks and then washed with 1×PBS. Cell pellets can be stored at −80° C. before use. About five million induced cells are resuspended in 10 mM phosphate buffer with 0.2% Tween-20 and protease inhibitors, e.g., Complete™ Protease Inhibitor Cocktail Tablet (Roche Diagnostics Corp., Indianapolis, Ind.). Three cycles of freeze/thaw/sonication are used to lyse the cells. The lysate is diluted two-fold with Biacore running buffer and centrifuged to remove debris.
On Biacore T100, rabbit anti-GFP antibody or goat anti-GFP antibody is immobilized onto flow cell 1 to 4 of a CMS chip at 5000-15000 Rus. FPN1-GFP is captured onto flow cell 2, 3, or 4 from the lysate of induced cells. Flow cell 1 is used as reference. […]

B1: Mab 34A9 (antibody, mouse IgG1, kappa, V domains shown)
VH: QVQLKQSGAELVRPGTSVKVSCKASGYAFTNFLIEWLKQRPGQGLEWIGTINPETGGTKYNEKFRGKATLTADKSSSTAYMQLNSLTSDDSAVYFCVREFFDYWGQGTSLTVSS
VL: ETTVTQSPSYLAASPGETITINCRASKSISKYLAWFQEKPGKTNKLLIYAGSTLHSGIPSRFSGSGSGTDFTLTISSLEPEDFAMYYCQQHNEYPYTFGGGTKLELKR
notes: Mouse monoclonal antibody against human FPN1; also called mouse 34A9; mouse Mab 34A9
binding result (peptide 0708L4C): binds | binding result (peptide 0708L4D): binds | binding result (peptide FpnE3a): binds | binding result (peptide 060719Z): binds | Percent (%) Inhibition of Mature Human Hepcidin-induced Internalization and Degradation, Mab at 7.4 nM [1]: 4.8% | Percent (%) Inhibition of Mature Human Hepcidin-induced Internalization and Degradation, Mab at 22 nM [1]: 14.1% | Percent (%) Inhibition of Mature Human Hepcidin-induced Internalization and Degradation, Mab at 67 nM [1]: 23.6% | Percent (%) Inhibition of Mature Human Hepcidin-induced Internalization and Degradation, Mab at 200 nM [1]: 30.8% | Percent (%) Inhibition of Mature Human Hepcidin-induced Internalization and Degradation, Mab at 600 nM [1]: 39% | Relative IC50 of inhibition of hepcidin-25-induced internalization and degradation of FPN1-GFP [2]: 58.9 nM | Top % Inhibition of hepcidin-25-induced internalization and degradation of FPN1-GFP [2]: 55.2% | Kd [3]: 1.18 nM | koff [3]: 8.16e-05 s⁻¹ | kon [3]: 69000 M⁻¹ s⁻¹

B2: Mab 3D8 (antibody, human IgG4 S228P, kappa, F234A L235A, V domains shown)
VH: QVQLVQSGAEVKKPGSSVKVSCKASGYAFTSFLIEWVRQAPGQGLEWMGTSNPRTGGTKYKEKFRGRVTITADKSTSTAYMELSSLRSEDTAVYYCAREFFDYWGQGTTVTVSS
VL: DIQMTQSPSSLSASVGDRVTITCRASKSISKYTAWYQQKPGKAPKLLIYAGSKLHSGVPSRFSGSGSGTDFTLTISSLQPEDFATYYCQQHNEYPYTFGGGTKVEIKR
notes: Humanized form of mouse 1G9 with human heavy chain framework VH1-69 and light chain framework O2; also called human 3D8
IC50 (human ferroportin 1 [4]): ~400 nM | EC50 of inhibition of mature hepcidin induced increase in cellular ferritin, Caco-2 cells (human ferroportin 1 [5]): 360 nM | Percentage inhibition of mature hepcidin induced increase in cellular ferritin, Caco-2 cells, Mab at 2.22E-7 M (human ferroportin 1 [5]): 25.2% | Percentage inhibition of mature hepcidin induced increase in cellular ferritin, Caco-2 cells, Mab at 2.47E-8 M (human ferroportin 1 [5]): 3.4% | Percentage inhibition of mature hepcidin induced increase in cellular ferritin, Caco-2 cells, Mab at 2.7E-9 M (human ferroportin 1 [5]): 10.6% | Percentage inhibition of mature hepcidin induced increase in cellular ferritin, Caco-2 cells, Mab at 3.0E-10 M (human ferroportin 1 [5]): 7.3% | Percentage inhibition of mature hepcidin induced increase in cellular ferritin, Caco-2 cells, Mab at 6.67E-7 M (human ferroportin 1 [5]): 29.8% | Percentage inhibition of mature hepcidin induced increase in cellular ferritin, Caco-2 cells, Mab at 7.4E-8 M (human ferroportin 1 [5]): 12% | Percentage inhibition of mature hepcidin induced increase in cellular ferritin, Caco-2 cells, Mab at 8.0E-9 M (human ferroportin 1 [5]): 14.9% | Percentage inhibition of mature hepcidin induced increase in cellular ferritin, Caco-2 cells, Mab at 9.0E-10 M (human ferroportin 1 [5]): 8.6% | Kd [6]: 3.37 nM | koff [6]: 0.0011 s⁻¹ | kon [6]: 325000 M⁻¹ s⁻¹ | % Inhibition (human ferroportin 1 [7]): -2.8% | % Inhibition (human ferroportin 1 [8]): 21.8% | Percent (%) Inhibition of Mature Human Hepcidin-induced Internalization and Degradation, Mab at 7.4 nM [1]: 28.1% | Percent (%) Inhibition of Mature Human Hepcidin-induced Internalization and Degradation, Mab at 22 nM [1]: 50.2% | Percent (%) Inhibition of Mature Human Hepcidin-induced Internalization and Degradation, Mab at 67 nM [1]: 55.7% | Percent (%) Inhibition of Mature Human Hepcidin-induced Internalization and Degradation, Mab at 200 nM [1]: 63.8% | Percent (%) Inhibition of Mature Human Hepcidin-induced Internalization and Degradation, Mab at 600 nM [1]: 66.4% | % Inhibition (human ferroportin 1 [9]): 54.7% | % Inhibition (human ferroportin 1 [10]): 4% | Absolute IC50 of inhibition of hepcidin-25-induced internalization and degradation of FPN1-GFP [2]: 13.7 nM | Relative IC50 of inhibition of hepcidin-25-induced internalization and degradation of FPN1-GFP [2]: 10.2 nM | Top % Inhibition of hepcidin-25-induced internalization and degradation of FPN1-GFP [2]: 86.8% | % Inhibition (human ferroportin 1 [11]): 64.7%

B3: Fab 1G9 (Fab, V domains shown)
VH: QVQLKQSGAELVRPGTSVKVSCKASGYAFTSFLIEWLKQRPGQGLEWIGTINPRTGGTKYNEKFRGKATLTADKSSSTAYMQLNSLTSDDSAVYFCVREFFDYWGQGTSLTVSS
VL: ETTVTQSPSYLAASPGETITINCRASKSISKYLAWFQEKPGKTNKLLIYAGSKLHSGIPSRFSGSGSGTDFTLTISSLEPEDFAMYYCFQHNEYPYTFGGGTKLELK
notes: also called mouse 1G9; mouse Fab 1G9
Kd [12]: 2.9 nM | koff [12]: 0.000497 s⁻¹ | kon [12]: 173000 M⁻¹ s⁻¹ | Kd [13]: 7.71 nM | koff [13]: 0.000897 s⁻¹ | kon [13]: 127000 M⁻¹ s⁻¹ | fold improvement in binding affinity over mouse Fab 34A9 [14]: ~5 fold
